Results as given in article doi:10.1101/2021.06.29.450403 (bioRxiv, 2021).

Experiments:
Chicken calmodulin (CaM) [1] = target: T1, Chicken calmodulin (CaM) (chicken, UniProt P62149 1-149); assay: NMR titration
[2] = target: recombinant rAQP4ct protein (complete cytosolic C-terminal domain of human AQP4, residues 254-323) (human, UniProt P55087-1 254-323); assay: steady-state intrinsic Trp fluorescence
Chicken calmodulin (CaM) [3] = target: T1, Chicken calmodulin (CaM); assay: steady-state intrinsic Trp fluorescence

PTARRWGKSGPLSTR [recombinant rAQP4nt6-19 truncated peptide]: binds (Chicken calmodulin (CaM) [1]).

B1: CaM bound AQP4nt-W30A peptide (complex)
chain 1: […]
chain 2: PTARRWGKSGPLSTRENIMVAFKGVAT
B1: binds [2].

In the case of Ac-VEFKRRFKEAFSKAAQQTKGSYMEV-NH2 [human AQP4ct synthetic peptide (residues 256-280)], the “apparent Kd, C-lobe of CaM (first binding event)” value (Chicken calmodulin (CaM) [1]) is reported as 3.6 µM, the “apparent Kd, N-lobe of CaM (second binding event)” value (Chicken calmodulin (CaM) [1]) is reported as 114 µM and the “stoichiometry N” value (Chicken calmodulin (CaM) [1]) is reported as 2.

PTARRWGKSGPLSTRENIMVAFKGVAT [recombinant rAQP4ntW30A peptide]: binds (Chicken calmodulin (CaM) [3]).

In the case of Ac-TARRWGKSGPLSTRENIMVAFKGVWT-NH2 [human AQP4nt synthetic peptide (residues 6-31, two Cys modified to Ser)], the Kd (Chicken calmodulin (CaM) [1]) is reported as 3.4 µM and the “stoichiometry N” value (Chicken calmodulin (CaM) [1]) is reported as 1.
